Measured values: US20100159560

What was measured:
[1] = molecular target: T1, protransglutaminase of Streptoverticillium mobaraense IFO13819 (pro-MTG) (UniProt P81453)
T1 sequence: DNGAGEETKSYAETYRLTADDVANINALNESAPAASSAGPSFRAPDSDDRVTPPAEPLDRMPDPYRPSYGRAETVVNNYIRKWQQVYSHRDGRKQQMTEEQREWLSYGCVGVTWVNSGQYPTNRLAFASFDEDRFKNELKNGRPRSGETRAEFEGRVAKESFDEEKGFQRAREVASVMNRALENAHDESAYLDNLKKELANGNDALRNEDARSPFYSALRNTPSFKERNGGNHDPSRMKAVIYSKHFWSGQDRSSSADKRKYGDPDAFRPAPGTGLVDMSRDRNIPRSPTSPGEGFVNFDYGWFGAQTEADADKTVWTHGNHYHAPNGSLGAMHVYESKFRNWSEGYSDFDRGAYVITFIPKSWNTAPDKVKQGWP

[2] = molecular target: T2, Streptomyces subtilisin inhibitor (SSI) derived from actinomycetes (UniProt P01006)
T2 sequence: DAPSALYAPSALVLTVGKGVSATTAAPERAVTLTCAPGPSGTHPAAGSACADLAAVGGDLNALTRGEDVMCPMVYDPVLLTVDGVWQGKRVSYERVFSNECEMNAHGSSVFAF

**Q.** “neutral metalloprotease SGMP II from Streptomyces griseus” was tested. Which “conversion of pro-MTG to mature MTG (SDS-PAGE time course; TG activity by the hydroxamate method), substrate:enzyme = 200:1” value [1] did it give?
**A.** pro-MTGs were converted to the mature forms, and the produced MTGs were not reduced even after a long-term reaction

**Q.** With “neutral metalloprotease SVP70 from Streptoverticillium mobaraense IFO13819” as the substance, how does the “cleavage points (HPLC separation and sequencing of peptide fragments)” value (insulin B) read?
**A.** cleaved before (at N-terminal side of) especially Phe, often Leu, sometimes Tyr, Trp, Ile, Val

**Q.** What about the “relative activity (Gly-Pro-Ser-Phe-Arg-Ala-Pro-Asp-Ser cleavage activity, absence of compounds = 100%)” value [2] of the same substance?
**A.** underwent strong inhibitory action

**Q.** What about the “amount of protease needed to convert pro-MTG to active MTG (TG activity by the hydroxamate method, MTG protein by reverse phase chromatography)” value [1] of the same substance?
**A.** SVP could convert pro-MTG to active MTG with an amount as small as 1/500 of the substrate

**Q.** And the “cleavage points (HPLC separation and sequencing of peptide fragments)” value [1]?
**A.** cleaved before (at N-terminal side of) especially Phe, often Leu, sometimes Tyr, Trp, Ile, Val

**Q.** And the “conversion of pro-MTG to mature MTG (SDS-PAGE time course; TG activity by the hydroxamate method), substrate:enzyme = 200:1” value [1]?
**A.** pro-MTGs were converted to the mature forms, and the produced MTGs were not reduced even after a long-term reaction

**Q.** What does the source list for “serine protease SAM-P45 (Streptomyces albogriseolus)”?
**A.** amount of protease needed to convert pro-MTG to active MTG (TG activity by the hydroxamate method) [1]: generated only insufficient transglutaminase activity even at an amount of 1/50 of the substrate, and that the complete conversion to the active form was not observed; amount of protease needed to convert pro-MTG to active MTG (TG activity by the hydroxamate method, MTG protein by reverse phase chromatography) [1]: when SAM-P45 was added at an amount of 1/10 of the substrate, the conversion into the active MTG was observed, but a decrease in the amount and the activity of MTG-protein was observed
